{"source": "paper PMC2911655", "proteins": {"B1": {"name": "Yju3p (Saccharomyces cerevisiae S288C) (protein)", "chain": "MAPYPYKVQTTVPELQYENFDGAKFGYMFWPVQNGTNEVRGRVLLIHGFGEYTKIQFRLMDHLSLNGYESFTFDQRGAGVTSPGRSKGVTDEYHVFNDLEHFVEKNLSECKAKGIPLFMWGHSMGGGICLNYACQGKHKNEISGYIGSGPLIILHPHTMYNKPTQIIAPLLAKFLPRVRIDTGLDLKGITSDKAYRAFLGSDPMSVPLYGSFRQIHDFMQRGAKLYKNENNYIQKNFAKDKPVIIMHGQDDTINDPKGSEKFIQDCPSADKELKLYPGARHSIFSLETDKVFNTVFNDMKQWLDKHTTTEAKP"}}, "substrate": "CCCCCCCC/C=C\\CCCCCCCC(=O)OCC(O)CO", "assay": "glycerol release, enzymatic glycerol kit, saturation curve", "assay_type": "biochemical, Saccharomyces cerevisiae", "conditions": "pH 7.5, 37 °C, 20 min, substrate complexed to defatted BSA 1:1", "data": [{"protein": "B1", "values": [{"measurement": "Km", "result": 260, "unit": "µM"}]}]}
